Where a chain is given by its changes, count along the chain named. In names and notes the source's numbering stands.
B1: hexa-Fc N297A/N563A (other)
chain: DKTHTCPPCPAPELLGGPSVFLFPPKPKDTLMISRTPEVTCVVVDVSHEDPEVKFNWYVDGVEVHNAKTKPREEQYASTYRVVSVLTVCLQDWLNGKEYKCKVSNKALPAPIEKTISKAKGQPREPQVYTLPPSRDELTKNQVSLTCLVKGFYPSDIAVEWESNGQPENNYKTTPPVLDSDGSFFLYSKLTVDKSRWQQGNVFSCSVMHEALHNHYTQKSLSLSPGKLVLGPTLYAVSLVMSDTAGTCY
modifications: no N-glycans; multimer, approximately dodecamers of Fc / no N-glycans; multimer, approximately dodecamers of Fc
B2: hexa-Fc D221N/N297A/N563A (other)
chain: B1 chain with D1N
modifications: N-linked glycan at Asn-221

Assays:
hexa-Fc N297A/N563A = target: T1, hexa-Fc N297A/N563A (human); test: SEC + other: non-reducing SDS-PAGE; molecular mass ∼650–700 kDa; SEC shown for N563A (supplemental Fig. S2); sizes counted in Fc units of two chains; conditions: both partners purified
T1 chain: B1 chain

[1] = target: the molecule itself; test: as above

Binder | stoichiometry N (hexa-Fc N297A/N563A) | stoichiometry N [1]
B1 | ~12 | –
B2 | – | ~12

Reference: PMC5546038, “Engineering the fragment crystallizable (Fc) region of human IgG1 multimers and monomers to fine-tune interactions with sialic acid-dependent receptors” (The Journal of Biological Chemistry, 2017)
